Measurements reported in PMC12098869, “An mRNA-display derived cyclic peptide scaffold reveals the substrate binding interactions of an N-terminal cysteine oxidase” (Nature Communications, 2025).
Several values for one entry are separate records, joined by “and”; a condition that tells them apart may be missing. Equal entries are not always repeated. Where a SMILES comes first, the peptide text is derived from it. Bridges are numbered along the chain shown (N, C = ends). Where no end group is shown, it is not given here. Side-chain parts run from the residue outwards. [ ]: non-standard residue; d: D form. Orn = NCCC[C@H](N)C(=O)O; Dap = NC[C@H](N)C(=O)O

How the values were obtained:
[1] = target: T1, human ADO (Homo sapiens, UniProt Q96SZ5); experiment: SPR single-cycle kinetic (SCK) binding of cyclic peptides to ADO; settings: for KD: Supplementary Fig. 4 series
T1 construct: Full-length human ADO (Uniprot ID: Q96SZ5) was cloned; made in house; host or cells: E. coli Rosetta2(DE3)
T1 sequence (Q96SZ5 1-270): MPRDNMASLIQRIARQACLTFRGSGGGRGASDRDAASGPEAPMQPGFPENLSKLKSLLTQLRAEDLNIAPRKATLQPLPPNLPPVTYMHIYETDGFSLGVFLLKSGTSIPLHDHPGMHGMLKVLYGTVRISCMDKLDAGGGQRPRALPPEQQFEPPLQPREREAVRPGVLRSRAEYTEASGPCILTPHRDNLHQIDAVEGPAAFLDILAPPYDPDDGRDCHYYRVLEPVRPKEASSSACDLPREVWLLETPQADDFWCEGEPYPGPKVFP
Description: After six cycles, clear enrichment of several CPs was observed by next-generation sequencing. The most enriched CPs (CP1-8, numbered according to their percentage enrichment in the final selection round) were selected for subsequent analysis (Table 1). CP1, 5, 6 and 7 are related in sequence, while CP2, 3, 4, and 8 are unique compositions (Fig. 1b). These CPs were subsequently produced by solid-phase peptide synthesis (SPPS) and analysed by surface plasmon resonance (SPR) using single cycle kinetic (SCK) analysis to confirm and quantify binding to ADO. ADO could interact with each CP to varying degrees (Supplementary Fig. 4, Table 1, Fig. 1dleft).
SPR measurements were made using a Biacore T200 (Cytiva) instrument and data were analysed using the Biacore Insight Evaluation Software. Biotinylated-ADO was immobilised on a Biotin CAP chip (Cytiva) with a target density of ∼2500–3000 RU and peptide/protein substrates were injected over the chip. Experiments were conducted at 4 °C using both multi-cycle (fit using the equilibrium steady state affinity 1:1 binding model) and single-cycle kinetics mode (fit using a 1:1 binding model). A buffer comprising 20 mM HEPES pH 7.5, 500 mM NaCl, 10 mM DTT, and 0.1% (v/v) tween-20 was used as the running buffer at a flow rate of 50 μL/minute.

[2] = target: T2, 2-aminoethanethiol dioxygenase (ADO), full-length human, N-terminally His-tagged and biotinylated … (human, UniProt Q96SZ5 1-270, biotin (biotinylated during expression, 0.2 mM biotin added)); experiment: cell-based or functional assay
T2 sequence (looked up): T1 sequence (Q96SZ5 1-270)

[3] = target: T2, 2-aminoethanethiol dioxygenase (ADO), …; experiment: SPR; single cycle kinetic (SCK) analysis, 1:1 binding model; biotinylated ADO immobilised on a Biotin CAP chip (~2500-3000 RU), cyclic peptides injected; 4 °C; 20 mM HEPES pH 7.5, 500 mM NaCl, 10 mM DTT, 0.1% tween-20; 50 μL/minute; settings: both partners purified
[4] = target: T3, 2-aminoethanethiol dioxygenase (ADO), full-length human, N-terminally His-tagged and biotinylated … (human, UniProt Q96SZ5 1-270, biotin (biotinylated during expression, 0.2 mM biotin added)); experiment: SPR; single-cycle kinetics (1:1 binding model); biotinylated ADO immobilised on a Biotin CAP chip (~2500-3000 RU), cyclic peptide injected; Biacore T200, 4 °C; 20 mM HEPES pH 7.5, 500 mM NaCl, 10 mM DTT, 0.1% tween-20; 50 µL/minute; each cell is one of three independent measurements; settings: both partners purified
T3 construct: 2-aminoethanethiol dioxygenase (ADO), human, UniProt Q96SZ5, full length; Immobilised through its biotin on a Biotin CAP chip for SPR; also called wild type ADO; Biotinylated-ADO; source: E. coli Rosetta2(DE3), purified (Ni-NTA, SEC); not shown: biotinylation tag (from the vector pQE80L-Navi), N-terminal, kept
T3 sequence (looked up): T1 sequence (Q96SZ5 1-270)
Method in brief: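 Full-length human ADO carrying a His tag and a biotin label was produced in E. coli and purified first by nickel affinity, then by gel filtration. The protein was loaded onto a Biotin CAP chip in a Biacore T200 to roughly 2500–3000 RU, after which cyclic peptides were passed across the surface at 50 µL/minute and 4 °C in HEPES pH 7.5 buffer containing 500 mM NaCl, DTT and tween-20. Each Kd was obtained by fitting single-cycle kinetic sensorgrams to a 1:1 binding model, based on three independent measurements.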

[5] = 1:1 binding model, 4 °C, geometric mean of a minimum of three independent measurements (n = 3) with standard error
[6] = Fig. 3c series, geometric mean of a minimum of three independent measurements (n = 3)

**Q.** CC[C@H](C)[C@@H]1NC(=O)[C@H](CCCNC(=N)N)NC(=O)[C@H](Cc2ccc(O)cc2)NC(=O)CSC[C@@H](C(=O)N2CCC[C@H]2C(=O)N[C@@H](CS)C(N)=O)NC(=O)[C@H](CC(C)C)NC(=O)[C@H](C(C)C)NC(=O)[C@H](Cc2c[nH]c3ccccc23)NC(=O)[C@H](CO)NC(=O)[C@H](CCCNC(=N)N)NC(=O)[C@H](Cc2ccccc2)NC(=O)[C@H](C(C)C)NC(=O)[C@H](CCCNC(=N)N)NC(=O)[C@H]([C@@H](C)CC)NC1=O [CP2] ({CH2CO}-YRIIRVFRSWVLCPC-NH2; thioether N-13; N-terminus and C-terminus assumed) was tested. Which KD ([1]; replicate 1) did it give?
**A.** 6280 nM

**Q.** What about the KD ([1]; replicate 2) of the same molecule?
**A.** 5190 nM

**Q.** What about the KD ([1]; replicate 3) of the same molecule?
**A.** 4690 nM

**Q.** CC(C)C[C@@H]1NC(=O)[C@H](Cc2c[nH]c3ccccc23)NC(=O)[C@H]([C@@H](C)O)NC(=O)[C@H]([C@@H](C)O)NC(=O)[C@H](CO)NC(=O)[C@H](C(C)C)NC(=O)[C@H]([C@@H](C)O)NC(=O)[C@H](Cc2ccc(O)cc2)NC(=O)CSC[C@@H](C(N)=O)NC(=O)[C@H](CCC(N)=O)NC(=O)[C@H](CCCNC(=N)N)NC(=O)[C@H](Cc2c[nH]cn2)NC(=O)[C@H]([C@@H](C)O)NC(=O)CNC1=O [CP1] ({CH2CO}-YTVSTTWLGTHRQC-NH2; thioether N-14) was tested. Which Kd [1, 5] did it give?
**A.** 35.4 ± 2.11 nM

**Q.** Which Kd [1, 5] does the source give for CC[C@H](C)[C@@H]1NC(=O)[C@H](Cc2ccc(O)cc2)NC(=O)CSC[C@@H](C(N)=O)NC(=O)[C@H](CCC(N)=O)NC(=O)[C@H](CCCNC(=N)N)NC(=O)[C@H](Cc2c[nH]cn2)NC(=O)[C@H](CO)NC(=O)CNC(=O)[C@H](CC(C)C)NC(=O)[C@H](Cc2c[nH]c3ccccc23)NC(=O)[C@H](Cc2ccccc2)NC(=O)[C@H]([C@@H](C)O)NC(=O)[C@H](CCCCN)NC(=O)[C@H](C(C)C)NC1=O [CP6] ({CH2CO}-YIVKTFWLGSHRQC-NH2; thioether N-14) here?
**A.** 66.2 ± 0.86 nM

**Q.** And the Kd [1, 6]?
**A.** 51 ± 0.25 nM

**Q.** CC[C@H](C)[C@@H]1NC(=O)[C@H](Cc2ccc(O)cc2)NC(=O)CSC[C@@H](C(N)=O)NC(=O)[C@H](CCC(N)=O)NC(=O)[C@H](CCCNC(=N)N)NC(=O)[C@H](Cc2c[nH]cn2)NC(=O)[C@H](CO)NC(=O)CNC(=O)[C@H](CCCCNC(=O)[C@@H](N)CS)NC(=O)[C@H](Cc2c[nH]c3ccccc23)NC(=O)[C@H](Cc2ccccc2)NC(=O)[C@H]([C@@H](C)O)NC(=O)[C@H](CCCCN)NC(=O)[C@H](C(C)C)NC1=O [CP6-L8K-Cys] ({CH2CO}-YIVKTFWK(Cys)GSHRQC-NH2; thioether N-14) was tested. Which Kd ([1]; Fig. 3c / Supplementary Fig. 15 series, replicate 3) did it give?
**A.** 13.6 nM

**Q.** CC[C@H](C)[C@@H]1NC(=O)[C@H](Cc2ccc(O)cc2)NC(=O)CSC[C@@H](C(N)=O)NC(=O)[C@H](CCC(N)=O)NC(=O)[C@H](CCCNC(=N)N)NC(=O)[C@H](Cc2c[nH]cn2)NC(=O)[C@H](CO)NC(=O)CNC(=O)[C@H](CCCCNC(=O)[C@@H](N)CO)NC(=O)[C@H](Cc2c[nH]c3ccccc23)NC(=O)[C@H](Cc2ccccc2)NC(=O)[C@H]([C@@H](C)O)NC(=O)[C@H](CCCCN)NC(=O)[C@H](C(C)C)NC1=O [CP6-L8K-Ser] ({CH2CO}-YIVKTFWK(Ser)GSHRQC-NH2; thioether N-14) was tested. Which Kd [1, 6] did it give?
**A.** 21 ± 4.9 nM

**Q.** Which KD ([1]; replicate 1) does the source give for CC(C)C[C@@H]1NC(=O)[C@H](CCCNC(=N)N)NC(=O)CNC(=O)[C@H](CCCNC(=N)N)NC(=O)[C@H](CCCNC(=N)N)NC(=O)[C@@H]2CCCN2C(=O)[C@H](Cc2ccccc2)NC(=O)CNC(=O)[C@H](CCC(=O)O)NC(=O)[C@H](CC(N)=O)NC(=O)[C@H](CC(C)C)NC(=O)[C@H]([C@@H](C)O)NC(=O)[C@H](Cc2c[nH]c3ccccc23)NC(=O)[C@H](Cc2ccc(O)cc2)NC(=O)CSC[C@@H](C(N)=O)NC1=O [CP3] ({CH2CO}-YWTLNEGFPRRGRLC-NH2; thioether N-15; N-terminus and C-terminus assumed) here?
**A.** 13500 nM

**Q.** And the KD ([1]; replicate 2)?
**A.** 5000 nM

**Q.** And the KD ([1]; replicate 3)?
**A.** 6630 nM

**Q.** Which Kd [1, 6] does the source give for CC[C@H](C)[C@@H]1NC(=O)[C@H](Cc2ccc(O)cc2)NC(=O)CSC[C@@H](C(N)=O)NC(=O)[C@H](CCC(N)=O)NC(=O)[C@H](CCCNC(=N)N)NC(=O)[C@H](Cc2c[nH]cn2)NC(=O)[C@H](CO)NC(=O)CNC(=O)[C@H](CCCNC(=O)[C@@H](N)CO)NC(=O)[C@H](Cc2c[nH]c3ccccc23)NC(=O)[C@H](Cc2ccccc2)NC(=O)[C@H]([C@@H](C)O)NC(=O)[C@H](CCCCN)NC(=O)[C@H](C(C)C)NC1=O [CP6-L8O-Ser] ({CH2CO}-YIVKTFW[Orn](Ser)GSHRQC-NH2; thioether N-14) here?
**A.** 140 ± 120 nM

B1: cyclic peptide CP8 (peptide)
peptide: {CH2CO}-YTYRYPSILRVWARYGC
modifications: thioether N-17
notes: cyclic peptide selected against ADO by RaPID mRNA display; source: synthetic peptide (solid-phase peptide synthesis)
**Q.** Which “IC50 of inhibition of ADO activity (oxidation of RGS5_(2-15), LCMS)” value (“IC50 of inhibition of ADO activity” for short) [2] does the source give for B1 here?
**A.** 1730 nM

**Q.** What about the Kd [3] of the same molecule?
**A.** 4.7 nM

B2: cyclic peptide CP1 (peptide)
peptide: {CH2CO}-YTVSTTWLGTHRQC
modifications: thioether N-14
notes: cyclic peptide selected against ADO by RaPID mRNA display; Details of synthesis are in the supplementary methods; source: synthetic peptide (solid-phase peptide synthesis)
**Q.** Which “IC50 of inhibition of ADO activity” value [2] does the source give for B2 here?
**A.** 1720 nM

**Q.** And the Kd [3]?
**A.** 35 nM

B3: cyclic peptide CP2 (peptide)
peptide: {CH2CO}-YRIIRVFRSWVLCPC
modifications: thioether N-13
notes: as for B1
**Q.** Which results are given for B3?
**A.** IC50 of inhibition of ADO activity (oxidation of RGS5_(2-15), LCMS) [2]: > 50000 nM; Kd [3]: > 5000 nM

B4: cyclic peptide CP5 (peptide)
peptide: {CH2CO}-YITITSWLGTLRQC
modifications: thioether N-14
notes: as for B1
**Q.** B4 was tested. Which “IC50 of inhibition of ADO activity” value [2] did it give?
**A.** 5680 nM

**Q.** And the Kd [3]?
**A.** 40 nM

**Q.** For {CH2CO}-YIVKTFW[Dap]([Phe-Ser])GSHRQC (thioether N-14) [CP6-L8d-Phe-Ser], which Kd [4] is on record?
**A.** 79.9 nM and 77.7 nM and 78.1 nM

**Q.** With {CH2CO}-YIVKTFW[Dap]([Lys-Ser])GSHRQC (thioether N-14) [CP6-L8d-Lys-Ser] as the molecule, how does the Kd [4] read?
**A.** 461 nM and 530 nM and 472 nM

**Q.** With {CH2CO}-YIVKTFW[Dap]([Gly-Ser])GSHRQC (thioether N-14) [CP6-L8d-Gly-Ser] as the molecule, how does the Kd [4] read?
**A.** 154 nM and 144 nM and 145 nM

B5: cyclic peptide CP3 (peptide)
peptide: {CH2CO}-YWTLNEGFPRRGRLC
modifications: thioether N-15
notes: as for B1
**Q.** Which Kd [3] does the source give for B5 here?
**A.** > 5000 nM

B6: cyclic peptide CP4 (peptide)
peptide: {CH2CO}-YYYVLGTILVKRYRFC
modifications: thioether N-16
notes: as for B1
**Q.** Which “IC50 of inhibition of ADO activity” value [2] does the source give for B6 here?
**A.** > 50000 nM

B7: cyclic peptide CP6 (peptide)
peptide: {CH2CO}-YIVKTFWLGSHRQC-NH2
modifications: thioether N-14
SMILES: CC[C@H](C)[C@@H]1NC(=O)[C@H](Cc2ccc(O)cc2)NC(=O)CSC[C@@H](C(N)=O)NC(=O)[C@H](CCC(N)=O)NC(=O)[C@H](CCCNC(=N)N)NC(=O)[C@H](Cc2c[nH]cn2)NC(=O)[C@H](CO)NC(=O)CNC(=O)[C@H](CC(C)C)NC(=O)[C@H](Cc2c[nH]c3ccccc23)NC(=O)[C@H](Cc2ccccc2)NC(=O)[C@H]([C@@H](C)O)NC(=O)[C@H](CCCCN)NC(=O)[C@H](C(C)C)NC1=O
notes: cyclic peptide selected against ADO by RaPID mRNA display; also called unmodified CP6; source: synthetic peptide (solid-phase peptide synthesis)
**Q.** Which results are given for B7?
**A.** IC50 of inhibition of ADO activity (oxidation of RGS5_(2-15), LCMS) [2]: 950 nM; Kd [3]: 66 nM
